Laboratory results: patent US11833164B2, “Methods of treating Fabry disease in patients having a mutation in the GLA gene” (Amicus Therapeutics, Inc., priority 2019, dated 2023)
Substitutions are numbered along the chain they refer to. Names and notes keep the numbering of the source.

B1: F169L (protein)
chain: MQLRNPELHLGCALALRFLALVSWDIPGARALDNGLARTPTMGWLHWERFMCNLDCQEEPDSCISEKLFMEMAELMVSEGWKDAGYEYLCIDDCWMAPQRDSEGRLQADPQRFPHGIRQLANYVHSKGLKLGIYADVGNKTCAGFPGSFGYYDIDAQTFADWGVDLLKLDGCYCDSLENLADGYKHMSLALNRTGRSIVYSCEWPLYMWPFQKPNYTEIRQYCNHWRNFADIDDSWKSIKSILDWTSFNQERIVDVAGPGGWNDPDMLVIGNFGLSWNQQVTQMALWAIMAAPLFMSNDLRHISPQAKALLQDKDVIAINQDPLGKQGYQLRQGDNFEVWERPLSGLAWAVAMINRQEIGGPRSYTIAVASLGKGVACNPACFITQLLPVKRKLGFYEWTSRLRSHINPTGTVLLQLENTMQMSLKDLL
B2: Y173C (protein)
chain: B1 chain with L169F, Y173C
B3: L177M (protein)
chain: B1 chain with L169F, L177M
B4: L177F (protein)
chain: B1 chain with L169F, L177F
B5: S176C (protein)
chain: B1 chain with L169F, S176C
B6: D175Y (protein)
chain: B1 chain with L169F, D175Y
B7: L177V (protein)
chain: B1 chain with L169F, L177V
B8: F169Y (protein)
chain: B1 chain with L169Y
B9: G171V (protein)
chain: B1 chain with L169F, G171V
B10: S176R (protein)
chain: B1 chain with L169F, S176R
B11: F169V (protein)
chain: B1 chain with L169V
B12: D175V (protein)
chain: B1 chain with L169F, D175V
B13: E178A (protein)
chain: B1 chain with L169F, E178A
B14: L177W (protein)
chain: B1 chain with L169F, L177W
B15: Y173S (protein)
chain: B1 chain with L169F, Y173S
B16: D175G (protein)
chain: B1 chain with L169F, D175G
B17: L177S (protein)
chain: B1 chain with L169F, L177S
B18: Y173H (protein)
chain: B1 chain with L169F, Y173H
B19: G171A (protein)
chain: B1 chain with L169F, G171A
B20: D175H (protein)
chain: B1 chain with L169F, D175H
B21: Y173F (protein)
chain: B1 chain with L169F, Y173F

tested on: mutant form of α-Gal A expressed in HEK-293 cells; test: HEK assay (GLP HEK / Migalastat Amenability Assay): α-Gal A activity in lysates of transiently transfected HEK-293 cells incubated with or without 10 μM migalastat; assay type: cell-based, human; settings: 10 μM migalastat versus baseline
How it was run: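 HEK-293 cells transiently transfected with mutant α-Gal A and incubated with or without 10 μM migalastat; lysate activity given as nmol free 4-MU released per mg protein per hour. Values are mean±SEM.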

Molecule | Absolute increase (% WT)
B1 | 34.5
B2 | 29.3
B3 | 27.9
B4 | 38.7
B5 | 16.2
B6 | 22.9
B7 | 22.9
B8 | 30.2
B9 | 6.4
B10 | 22.0
B11 | 42.8
B12 | 19.7
B13 | 14.5
B14 | 37.6
B15 | 14.8
B16 | 18.1
B17 | 35.9
B18 | 18.3
B19 | 26.4
B20 | 26.4
B21 | 21.2

same assay, conditions: 10 μM migalastat α-Gal A activity relative to baseline

Molecule | Relative increase
B1 | 1.7
B2 | 1.6
B3 | 1.4
B4 | 1.9
B5 | 1.2
B6 | 1.8
B7 | 1.3
B8 | 1.6
B9 | 3.6
B10 | 1.3
B11 | 5.6
B12 | 1.6
B13 | 1.2
B14 | 1.7
B15 | 1.2
B16 | 1.2
B17 | 1.7
B18 | 1.3
B19 | 1.4
B20 | 1.4
B21 | 1.3

same assay, conditions: 10 μM migalastat, 5 days; percentage of baseline wild-type α-Gal A activity; mean ± SEM

Molecule | 10 μM migalastat α-Gal A activity (% WT)
B1 | 82.3 ± 3.2
B2 | 80.5 ± 3.3
B3 | 97.4 ± 2.7
B4 | 84 ± 2.3
B5 | 79.5 ± 5.1
B6 | 52.3 ± 1.9
B7 | 91.8 ± 2.8
B8 | 75.5 ± 3.6
B9 | 9.2 ± 0.9
B10 | 88.3 ± 3.3
B11 | 53 ± 2.1
B12 | 53.5 ± 2.5
B13 | 84.8 ± 6.8
B14 | 88.2 ± 2
B15 | 76.2 ± 3.3
B16 | 92.8 ± 6.2
B17 | 87.2 ± 4.5
B18 | 80.2 ± 4.6
B19 | 84 ± 5.7
B20 | 87.1 ± 3.9
B21 | 97.7 ± 4.7

same assay, conditions: absence of migalastat; percentage of baseline wild-type α-Gal A activity; mean ± SEM

Molecule | Baseline α-Gal A activity (% WT)
B1 | 47.8 ± 2.9
B2 | 51.1 ± 3.6
B3 | 69.5 ± 2.3
B4 | 45.3 ± 2.1
B5 | 63.3 ± 3.9
B6 | 29.4 ± 2.4
B7 | 68.9 ± 3.2
B8 | 45.3 ± 2.8
B9 | 2.8 ± 0.2
B10 | 66.3 ± 2
B11 | 10.2 ± 0.9
B12 | 33.7 ± 2.2
B13 | 70.3 ± 4.9
B14 | 50.5 ± 2.6
B15 | 61.4 ± 3.3
B16 | 74.7 ± 6.7
B17 | 51.4 ± 1.7
B18 | 61.9 ± 3.4
B19 | 57.6 ± 2.8
B20 | 60.7 ± 3.4
B21 | 76.5 ± 4.2

same assay, conditions: lysates of HEK-293 cells transfected with the mutant form, incubated 5 days in the absence of migalastat; mean ± SEM

Molecule | Baseline α-Gal A activity [nmol/mg/h]
B1 | 15588 ± 1463
B2 | 17669 ± 1240
B3 | 23730 ± 946
B4 | 15605 ± 911
B5 | 20097 ± 1126
B6 | 8991 ± 838
B7 | 23616 ± 1282
B8 | 14358 ± 1768
B9 | 856 ± 62
B10 | 22675 ± 886
B11 | 2870 ± 239
B12 | 10430 ± 915
B13 | 23910 ± 1511
B14 | 17321 ± 1025
B15 | 21751 ± 1625
B16 | 23065 ± 2315
B17 | 17445 ± 533
B18 | 21234 ± 879
B19 | 19081 ± 1801
B20 | 18529 ± 1174
B21 | 26479 ± 1523

same assay, conditions: lysates of HEK-293 cells transfected with the mutant form, incubated 5 days with 10 μM migalastat; mean ± SEM

Molecule | 10 μM migalastat α-Gal A activity [nmol/mg/h]
B1 | 26527 ± 1806
B2 | 27924 ± 1225
B3 | 33080 ± 829
B4 | 28893 ± 1210
B5 | 24777 ± 960
B6 | 15923 ± 778
B7 | 31347 ± 1132
B8 | 23459 ± 2391
B9 | 3111 ± 411
B10 | 30159 ± 1226
B11 | 16145 ± 1680
B12 | 16384 ± 1039
B13 | 29125 ± 2326
B14 | 30075 ± 867
B15 | 26270 ± 994
B16 | 28273 ± 1968
B17 | 29868 ± 1909
B18 | 27455 ± 1147
B19 | 27514 ± 2486
B20 | 26201 ± 994
B21 | 33158 ± 657
